Data set [1] is described as follows: Critical assembly concentration (CAC) by pyrene fluorescence probe. In kind it is physicochemical. The text has this: In order to study the molecular design and their assembly behavior, we modular designed and synthesized seven molecules (Table 1), which respectively were BIVA probe: M1 (mPEG-GPAKLVFFGC(IR783)GRGD); the non- FAP-α tailoring molecule: M2 (mPEG-AGGKLVFFGC(IR783)GRGD) scrambled response tailoring motif of Gly-Pro-Ala with Ala-Gly-Gly; the non-labeling molecule of M1: M3 (mPEG-GPAKLVFFGCGRGD) removed IR783 labeling; FAP-α tailoring residue of M1: R-M1 (AKLVFFGC(IR783)GRGD); the non-targeting molecule: M4 (mPEG-GPAKLVFFGC(IR783)GDTG) scrambled targeting tailoring motif of Arg-Gly-Asp with Asp-Thr-Gly; the non-labeling molecule of M2: M5 (mPEG-AGGKLVFFGCGRGD) removed IR783 labeling; FAP-α tailoring residue of M3: R-M3 (AKLVFFGCGRGD). All the synthesized procedure (Supplementary Fig. 1) and characterizations of these seven molecules can be found in SI (Supplementary Figs. 2–8). […] Without IR783 labeling, molecules of M3 and M5 decreased the CAC value in solution relative to M1 and M2, which could be attributed to the proximity of the steric hindrance of hydrophilic IR783 to the self-assembly motif (Supplementary Fig. 9). […] The CAC was quantitatively calculated by fluorescence probe of pyrene.

The target in another data set is T1, FAP-α (Homo sapiens, UniProt Q12884).
T1 construct: purchased R&D SYSTEM
T1 sequence (Q12884 1-760): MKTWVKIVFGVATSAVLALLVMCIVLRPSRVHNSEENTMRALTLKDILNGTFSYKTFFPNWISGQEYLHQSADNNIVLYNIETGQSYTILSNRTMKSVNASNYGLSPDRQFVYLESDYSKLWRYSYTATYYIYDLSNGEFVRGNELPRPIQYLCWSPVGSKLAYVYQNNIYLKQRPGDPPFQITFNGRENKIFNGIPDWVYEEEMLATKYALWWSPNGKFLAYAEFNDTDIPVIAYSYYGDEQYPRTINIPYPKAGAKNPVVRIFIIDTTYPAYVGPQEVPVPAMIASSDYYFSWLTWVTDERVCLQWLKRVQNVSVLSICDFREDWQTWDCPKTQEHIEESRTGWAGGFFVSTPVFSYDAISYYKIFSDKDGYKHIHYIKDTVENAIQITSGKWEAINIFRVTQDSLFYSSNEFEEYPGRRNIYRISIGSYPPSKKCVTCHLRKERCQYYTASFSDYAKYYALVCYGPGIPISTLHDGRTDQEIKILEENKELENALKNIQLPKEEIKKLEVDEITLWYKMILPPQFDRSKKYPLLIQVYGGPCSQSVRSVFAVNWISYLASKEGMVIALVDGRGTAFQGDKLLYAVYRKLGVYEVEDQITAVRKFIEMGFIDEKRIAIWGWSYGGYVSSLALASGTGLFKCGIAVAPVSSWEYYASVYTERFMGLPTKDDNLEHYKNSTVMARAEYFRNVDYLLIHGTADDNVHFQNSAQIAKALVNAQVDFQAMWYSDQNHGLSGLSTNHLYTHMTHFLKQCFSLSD
The experiment in a line: FAP-α tailoring (cleavage) followed by HPLC and MALDI-TOF. In kind it is biochemical. The following applies: 100 μM molecule, FAP-α 50 μM, 12 h; buffer 50 mM Tris, 1 M NaCl, 1 mg/mL BSA, pH 7.5; HPLC (M3, M5), MALDI-TOF (M1). From the text:
To further investigate the FAP-α specific tailoring and BIVA probe assembly in situ simultaneously (Fig. 4a), the high-performance liquid chromatography (HPLC), TEM, and matrix-assisted laser desorption/ionization time-of-flight (MALDI-TOF) mass spectrometry were applied for the characterizations purpose. To specify the cutting of the response tailoring motif (Gly-Pro-Ala), pre-synthesized molecules of R-M3, M3 and M5 were set as controls. […] Comparing the residues peaks with R-M3, the primary sharp peak at 27.4 min can be identified by the R-M3 control (27.6 min). […] The retention time of M1 after co-incubation with inactivated FAP-α was similar to that of M3 (Supplementary Fig. 14). After hydrolyzed by FAP-α, the residues of M1 in situ assembled into nanofibers structures under the complex buffer (Fig. 4c and Supplementary Fig. 15). […] In order to further evaluate the specificity of M1 for different enzymes, including FAP-α, pepsin, pancreatin, lipase, and BSA, we used ThT (Thioflavin T) as a detection probe (Fig. 4e).
Fig. 4 The FAP-α specific molecule tailoring and inducing in situ assembly. a The illustration the working mechanism of BIVA probe based on FAP-α catalytic hydrolysis. b HPLC curves of M3 and M5 after incubation with FAP-α in buffer. R-M3, M3 and M5 were synthesized controls. The TEM image (c), and the MALDI-TOF (d), results of M1 after tailoring by FAP-α in buffer, the red arrows represent the assembled fibrils of M1 after incubation with FAP-α. e The enzyme specificity of M1 in buffer. Buffer: 50 mM Tris, 1 M NaCl, 1 mg/mL, BSA, pH 7.5; Concentration of M1 and M3: 100 μM; Concentration of FAP-α: 50 μM; incubation time: 12 h. […]

With “mPEG-GPAKLVFFGCGRGD [M3, the non-labeling molecule of M1 (no IR783)]”, the “pyrene I1/I3” value is 1.163 in data set [1] (conc 100 μM); 1.158 in data set [1] (conc 200 μM); 1.141 in data set [1] (conc 300 μM); 1.131 in data set [1] (conc 400 μM); 1.152 in data set [1] (conc 500 μM); 1.067 in data set [1] (conc 600 μM). In addition, the “pyrene I1/I3” value is recorded as 1.052 in data set [1] (conc 700 μM), 1.029 in data set [1] (conc 800 μM) and 0.978 in data set [1] (conc 900 μM). Also, the “tailoring (cleavage) by FAP-α” value at FAP-α is listed as “totally cleaved”.
Regarding mPEG-GPAKLVFFGC(IR783)GRGD [M1], in data set [1] (aqueous solution, analyzed based on pyrene fluorescence), the “Critical assembly concentration (CAC)” value was >500 µM. For the same substance, at FAP-α, the “tailoring (cleavage) by FAP-α” value is “cut into two parts of R-M1 and PEG residue”.

These data come from PMC8776730 (Nature Communications, 2022).
